Test [1] deals with Human pancreatic cells (BxPc-3). The experiment in a line: BxPc-3 xenograft pancreatic cancer model. The class given is in vivo. The following applies: BxPc-3 subcutaneous in nude mice; IP administration started after 2 weeks; versus control antibody (P1.17) or PBS; FIG. 2. The protocol: FIG. 2 is a graph showing growth of human pancreatic tumor cell line BxPc-3 in a xenograft animal model, with and without anti-Tweak antibody (P2D10) treatment.
Human pancreatic cells (BxPc-3) were injected subcutaneously into nude mice. After 2 weeks, when the tumors were […], the mice (9-10 per group) were treated with an anti-TWEAK antibody (P2D10), a control antibody (P1.17) or PBS, by IP administration.

Test [2] deals with mammary epithelial line Eph4. The experiment in a line: 3-D culture model system of the mammary epithelial line Eph4. It counts as cell-based. The following applies: Eph4 3-D culture. The text has this:
We detect Fn14 protein in human tumor cell lines and in xenograft and primary breast tumor samples. Fn14 expression is detected in the majority of human breast tumors but not in normal breast tissue samples. […] The capacity to promote proliferation, inhibit differentiation and induce invasion is consistent with a role for TWEAK in tumorigenesis.

The subject of test [3] is Human pancreatic tumor cells BxPc3, Panc1 and MiaPaCa2. Kind of test: cell invasion assay on matrigel-coated membranes in transwell plates. The class given is cell-based. Particulars: Tweak 50 ng/ml; BxPc-3, Panc-1 and MiaPaCa; measured after 48 hours; FIG. 1. The protocol:
FIG. 1 is a bar graph showing results from an invasion assay of human pancreatic cell lines with and without added Tweak (Tk), and in the presence or absence of an anti-Tweak antibody (p5g9). HGF is a positive control.
To measure the effect of Tweak on pancreatic tumor cell line invasiveness, cell invasion assays were performed. Human pancreatic tumor cells BxPc3, Panc1 and MiaPaCa2 were plated on matrigel-coated membranes in transwell plates. TWEAK was added to the medium, and the number of cells that invade was measured after 48 hours. BSA was used as a negative control and HGF as a positive control in these experiments.

B1: P2D10: exemplary murine anti-Tweak antibody; heavy chain variable domain SEQ ID NO:3, light chain variable domain SEQ ID NO:4 (antibody, listed as Mus musculus, V domains shown)
VH: EVQLVESGGGLVRPGGSLKLFCAASGFTFSRYAMSWVRQSPEKRLEWVAEISSGGSYPYYPDTVTGRFTISRDNAKNTLYLEMSSLKSEDTAMYYCARVLYYDYDGDRIEVMDYWGQGTAVIVSS
VL: DVVMTQSPLSLSVSLGDQASISCRSSQSLVSSKGNTYLHWYLQKPGQSPKFLIYKVSNRFSGVPDRFSGSGSGTDFTLKISRVAAEDLGVYFCSQSTHFPRTFGGGTTLEIK
For B1, in test [1], the tumor size result was “statistically significant reduction in tumor size”.

B2: Tweak: TNF-like weak inducer of apoptosis, a member of the tumor-necrosis factor (TNF) superfamily of cytokines (protein, listed as Homo sapiens)
chain: MAARRSQRRRGRRGEPGTALLVPLALGLGLALACLGLLLAVVSLGSRASLSAQEPAQEELVAEEDQDPSELNPQTEESQDPAPFLNRLVRPRRSAPKGRKTRARRAIAAHYEVHPRPGQDGAQAGVDGTVSGWEEARINSSSPLRYNRQIGEFIVTRAGLYYLYCQVHFDEGKAVYLKLDLLVDGVLALRCLEEFSATAASSLGPQLRLCQVSGLLALRPGSSLRIRTLPWAHLKAAPFLTYFGLFQVH
With B2, the “morphogenic phenotype (proliferation, invasiveness, functional differentiation)” value in test [2] (TWEAK treatment) is recorded as “induces a dramatic branching morphogenic phenotype”. Besides, the “matrix metalloproteinase MMP-9 expression” value in test [2] (following TWEAK treatment) is “significantly up-regulated”. Further, in test [3], the “invasion of human pancreatic cell lines (number of cells that invade)” value is reported as “induced invasion”.
